T1: Band 3 (SLC4A1), endogenous in human red blood cells (human (endogenous in RBCs), UniProt P02730 1-911)
T1 sequence: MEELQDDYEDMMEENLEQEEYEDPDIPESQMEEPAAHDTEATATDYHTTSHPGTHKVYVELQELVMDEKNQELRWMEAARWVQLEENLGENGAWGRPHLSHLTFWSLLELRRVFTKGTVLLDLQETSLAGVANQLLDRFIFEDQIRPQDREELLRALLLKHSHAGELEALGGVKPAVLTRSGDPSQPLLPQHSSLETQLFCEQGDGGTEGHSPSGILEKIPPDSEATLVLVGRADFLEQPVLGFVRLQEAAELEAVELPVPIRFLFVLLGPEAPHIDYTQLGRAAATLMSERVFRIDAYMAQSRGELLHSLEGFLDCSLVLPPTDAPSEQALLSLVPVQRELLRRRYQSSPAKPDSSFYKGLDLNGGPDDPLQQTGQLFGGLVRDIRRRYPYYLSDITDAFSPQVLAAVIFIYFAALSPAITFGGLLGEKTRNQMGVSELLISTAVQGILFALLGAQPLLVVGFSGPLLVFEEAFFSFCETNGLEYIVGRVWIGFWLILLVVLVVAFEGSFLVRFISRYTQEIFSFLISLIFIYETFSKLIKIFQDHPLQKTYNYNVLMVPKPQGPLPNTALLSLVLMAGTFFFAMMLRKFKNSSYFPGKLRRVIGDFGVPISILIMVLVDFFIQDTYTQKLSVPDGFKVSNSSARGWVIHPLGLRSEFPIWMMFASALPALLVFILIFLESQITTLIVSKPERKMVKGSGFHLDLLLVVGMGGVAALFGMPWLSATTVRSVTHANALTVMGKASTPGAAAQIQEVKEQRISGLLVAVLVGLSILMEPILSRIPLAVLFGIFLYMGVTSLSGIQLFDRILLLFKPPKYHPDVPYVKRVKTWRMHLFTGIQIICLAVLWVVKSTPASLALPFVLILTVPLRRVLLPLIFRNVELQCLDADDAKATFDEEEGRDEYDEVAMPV

T2: human biliverdin reductase B (BLVRB), recombinant, full length (human, UniProt P30043 1-206)
T2 sequence: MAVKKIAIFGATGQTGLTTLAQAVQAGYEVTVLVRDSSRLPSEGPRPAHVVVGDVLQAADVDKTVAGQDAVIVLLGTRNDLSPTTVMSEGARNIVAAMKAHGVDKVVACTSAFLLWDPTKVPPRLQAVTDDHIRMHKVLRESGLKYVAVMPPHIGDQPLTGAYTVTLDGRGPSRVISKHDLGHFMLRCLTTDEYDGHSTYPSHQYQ


Tests used:
[1] = biological target: T1, Band 3 (SLC4A1), endogenous in human …; assay: cross-linking
[2] = biological target: T2, human biliverdin reductase B (BLVRB), …; assay: NMR titration

Row | Binder | fold change of cross-links, hypoxia against normoxia [1] | binding result [2]
1 | hemoglobin (deoxyhemoglobin tetramer), endogenous in human red blood cells (complex) chain 1: not shown chain 2: not shown | 3 fold | 
2 | Band 3 (SLC4A1) N-terminal residues 1-56, recombinant (domain or fragment) MEELQDDYEDMMEENLEQEEYEDPDIPESQMEEPAAHDTEATATDYHTTSHPGTHK |  | binds
3 | MEELQDDYEDMMEENLEQEEYEDPDIPESQ (domain or fragment) [Band 3 (SLC4A1) N-terminal residues 1-30, recombinant] |  | binds

From paper doi:10.1101/2025.11.29.691178 (bioRxiv, 2025)
